Data taken from patent publication US20230168249A1 (ACADEMIA SINICA, published 2023).
Read-outs that look alike come from different tables or passages of the source.

T1: HCoV-NL63-N protein (HCoV-NL63, UniProt Q6Q1R8 1-377)
T1 construct: also called NL63-CoV N
T1 sequence: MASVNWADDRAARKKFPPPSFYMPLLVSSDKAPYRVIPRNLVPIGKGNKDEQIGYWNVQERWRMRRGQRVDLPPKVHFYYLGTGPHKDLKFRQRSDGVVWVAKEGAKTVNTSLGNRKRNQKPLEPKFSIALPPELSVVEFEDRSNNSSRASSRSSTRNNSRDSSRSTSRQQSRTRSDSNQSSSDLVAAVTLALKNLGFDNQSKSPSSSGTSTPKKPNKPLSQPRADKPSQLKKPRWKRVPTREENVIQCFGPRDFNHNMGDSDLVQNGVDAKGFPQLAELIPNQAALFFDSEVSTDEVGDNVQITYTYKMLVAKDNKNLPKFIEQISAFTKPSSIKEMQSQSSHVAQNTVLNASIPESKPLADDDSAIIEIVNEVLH

T2: HCoV-HKU1-N protein (HCoV-HKU1, UniProt Q5MQC6 1-441)
T2 construct: also called HKU1-CoV N
T2 chain: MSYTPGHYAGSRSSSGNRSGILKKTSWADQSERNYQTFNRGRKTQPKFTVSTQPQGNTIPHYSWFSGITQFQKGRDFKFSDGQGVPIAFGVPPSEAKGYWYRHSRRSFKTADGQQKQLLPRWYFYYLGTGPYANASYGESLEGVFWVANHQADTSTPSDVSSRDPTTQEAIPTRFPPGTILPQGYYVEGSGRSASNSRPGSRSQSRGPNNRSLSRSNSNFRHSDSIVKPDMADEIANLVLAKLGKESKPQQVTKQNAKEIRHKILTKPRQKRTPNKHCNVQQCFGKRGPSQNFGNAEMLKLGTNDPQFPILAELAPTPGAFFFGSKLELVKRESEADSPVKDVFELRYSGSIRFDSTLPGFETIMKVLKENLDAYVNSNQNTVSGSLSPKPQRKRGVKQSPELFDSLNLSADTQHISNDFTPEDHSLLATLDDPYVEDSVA

T3: HCoV-OC43-N protein (HCoV-OC43, UniProt P33469 1-448)
T3 construct: also called OC43-CoV N
T3 chain: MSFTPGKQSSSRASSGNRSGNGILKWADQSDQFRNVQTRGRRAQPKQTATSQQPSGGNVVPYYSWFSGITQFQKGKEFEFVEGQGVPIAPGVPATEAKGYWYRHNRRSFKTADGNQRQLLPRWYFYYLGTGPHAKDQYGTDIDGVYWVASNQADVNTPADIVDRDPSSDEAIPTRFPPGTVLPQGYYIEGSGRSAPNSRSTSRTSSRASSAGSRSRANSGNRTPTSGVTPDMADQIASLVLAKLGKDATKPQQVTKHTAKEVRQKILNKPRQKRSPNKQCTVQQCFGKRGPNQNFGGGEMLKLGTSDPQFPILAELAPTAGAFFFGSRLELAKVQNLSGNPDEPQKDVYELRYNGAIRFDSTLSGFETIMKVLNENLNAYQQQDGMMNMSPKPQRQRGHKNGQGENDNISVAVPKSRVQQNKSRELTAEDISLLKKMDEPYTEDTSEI


How the values were obtained:
HCoV-NL63-N protein = biological target: T1, HCoV-NL63-N protein; assay: ELISA, IgG1 on recombinant N protein
MERS-CoV-N protein = biological target: T4, MERS-CoV-N protein (MERS-CoV, UniProt K9N4V7 1-411); assay: ELISA, IgG1 on recombinant N protein
T4 construct: also called MERS-CoV nucleocapsid protein

SARS-CoV-1-N protein = biological target: T5, SARS-CoV-1-N protein (SARS-CoV-1, UniProt P59595 1-422); assay: ELISA, IgG1 on recombinant N protein
T5 construct: also called SARS-CoV N; SARS-CoV-N

SARS-CoV-2-N protein [1] = biological target: T6, SARS-CoV-2-N protein (SARS-CoV-2, UniProt P0DTC9 1-419); assay: ELISA, IgG1 on recombinant N protein
T6 construct: also called nucleocapsid protein of SARS-CoV-2

HCoV-HKU1-N protein = biological target: T2, HCoV-HKU1-N protein; assay: ELISA, IgG1 on recombinant N protein
HCoV-OC43-N protein = biological target: T3, HCoV-OC43-N protein; assay: ELISA, IgG1 on recombinant N protein
SARS-CoV-2-N protein [2] = biological target: T6, SARS-CoV-2-N protein

Binder | EC50 (HCoV-NL63-N protein) [µg/mL] | EC50 (MERS-CoV-N protein) [µg/mL] | EC50 (SARS-CoV-1-N protein) [µg/mL] | EC50 (SARS-CoV-2-N protein [1]) [µg/mL] | EC50 (HCoV-HKU1-N protein) [µg/mL] | EC50 (HCoV-OC43-N protein) [µg/mL] | EC50 (SARS-CoV-2-N protein [2]) [µg/mL]
antibody #7 (antibody, V domains shown, also called C07) VH: EVQLVESGGGLVQPGGSLRLSCAASGFTIEDRWIHWVRQAPGKGLEWVASIWPMEGLTRYADSVKGRFTISADTSKNTAYLQMNSLRAEDTAVYYCARGYYGFDYWGQGTLVTVSS VL: DIQMTQSPSSLSASVGDRVTITCRASQDVEARVAWYQQKPGKAPKLLIFTSTRLYSGVPSRFSGSGSGTDFTLTISSLQPEDFATYYCQQIMPLPTTFGQGTKVEIKR | > 2 | > 2 | 0.0037 | 0.0037 | > 2 | > 2 | 0.018
antibody #21 (antibody, V domains shown, also called D21) VH: EVQLVESGGGLVQPGGSLRLSCAASGFTINNGSIHWVRQAPGKGLEWVAWIWPFGGYTYYADSVKGRFTISADTSKNTAYLQMNSLRAEDTAVYYCARGSYGYDYWGQGTLVTVSS VL: DIQMTQSPSSLSASVGDRVTITCRASQDVGSNVAWYQQKPGKAPKLLIFSAPFLYSGVPSRFSGSGSGTDFTLTISSLQPEDFATYYCQQFYDWPLTFGQGTKVEIKR | > 2 | > 2 | 0.0214 | 0.018 | > 2 | > 2 | 
antibody #22 (antibody, V domains shown, also called D22) VH: EVQLVESGGGLVQPGGSLRLSCAASGFTISSGSIHWVRQAPGKGLEWVASIWPFGGYTSYADSVKGRFTISADTSKNTAYLQMNSLRAEDTAVYYCARGSFGSDYWGQGTLVTVSS VL: DIQMTQSPSSLSASVGDRVTITCRASQDVDDNVAWYQQKPGKAPKLLISSSSGLYSGVPSRFSGSGSGTDFTLTISSLQPEDFATYYCQQSYNGPITFGQGTKVEIKR | > 2 | > 2 | 0.0039 | 0.0044 | > 2 | > 2 | 
antibody #33 (antibody, V domains shown, also called D33; C33) VH: EVQLVESGGGLVQPGGSLRLSCAASGFTINNGGIHWVRQAPGKGLEWVAGIWPFWGSTSYADSVKGRFTISADTSKNTAYLQMNSLRAEDTAVYYCARGSYGFDYWGQGTLVTVSS VL: DIQMTQSPSSLSASVGDRVTITCRASQDVYSSVAWYQQKPGKAPKLLIFGSSFLYSGVPSRFSGSGSGTDFTLTISSLQPEDFATYYCQQYYDWPITFGQGTKVEIKR | > 2 | > 2 | 0.0016 | 0.0014 | > 2 | > 2 | 0.0255
antibody #36 (antibody, V domains shown, also called IgG1#36; D36) VH: EVQLVESGGGLVQPGGSLRLSCAASGFTINRYSIHWVRQAPGKGLEWVAGIWPFGGDTTYADSVKGRFTISADTSKNTAYLQMNSLRAEDTAVYYCARGATSHDYWGQGTLVTVSS VL: DIQMTQSPSSLSASVGDRVTITCRASQDVTTTVAWYQQKPGKAPKLLINKGSWLYSGVPSRFSGSGSGTDFTLTISSLQPEDFATYYCQQYNKWPLTFGQGTKVEIKR | > 2 | > 2 | 0.002 | 0.0008 | > 2 | > 2 | 0.0288
antibody #48 (antibody, V domains shown, also called C48) VH: EVQLVESGGGLVQPGGSLRLSCAASGFTISNFGIHWVRQAPGKGLEWVAGIWPYGGYTFYADSVKGRFTISADTSKNTAYLQMNSLRAEDTAVYYCARFDSYSYSGYMDYWGQGTLVTVSS VL: DIQMTQSPSSLSASVGDRVTITCSGSSSNIGDNNVYWYQQKPGKAPKLLIFGPAYLYSGVPSRFSGSGSGTDFTLTISSLQPEDFATYYCAAGYSDNNGITFGQGTKVEIKR | > 2 | > 2 | 0.0186 | 0.0467 | > 2 | > 2 | 0.0207
antibody #11 (antibody, V domains shown, also called D11; C11) VH: EVQLVESGGGLVQPGGSLRLSCAASGFTIQDRMIHWVRQAPGKGLEWVASILPFLGATWYADSVKGRFTISADTSKNTAYLQMNSLRAEDTAVYYCARSWFSPFDYWGQGTLVTVSS VL: DIQMTQSPSSLSASVGDRVTITCRASQDVGGSVAWYQQKPGKAPKLLISFPGGLYSGVPSRFSGSGSGTDFTLTISSLQPEDFATYYCQQYFSWPITFGQGTKVEIKR | > 2 | > 2 | 0.0069 |  | > 2 | > 2 | 
